Where a chain is given by its changes, count along the chain named. Square brackets hold non-standard residues; d marks the D form. GABA = NCCCC(=O)O
T1: BC2T W10T
T1 construct: positional scanning library member
T1 peptide: Ac-PDRKAAVSHTQQ-NH2

T2: BC2T S8Q
T2 construct: positional scanning library member
T2 peptide: Ac-PDRKAAVQHWQQ-NH2

T3: BC2T W10P
T3 construct: positional scanning library member
T3 peptide: Ac-PDRKAAVSHPQQ-NH2

T4: BC2T Q12M
T4 construct: positional scanning library member
T4 peptide: Ac-PDRKAAVSHWQM-NH2

T5: BC2T W10Y
T5 construct: positional scanning library member
T5 peptide: Ac-PDRKAAVSHYQQ-NH2

T6: BC2T H9T
T6 construct: positional scanning library member
T6 peptide: Ac-PDRKAAVSTWQQ-NH2

T7: BC2T W10S
T7 construct: positional scanning library member
T7 peptide: Ac-PDRKAAVSHSQQ-NH2

T8: BC2T Q11C(Abu) (SMILES …)
T8 construct: positional scanning library member
T8 peptide: Ac-PDRKAAVSHW[GABA]Q-NH2

T9: BC2T W10C(Abu) (SMILES …)
T9 construct: positional scanning library member
T9 peptide: Ac-PDRKAAVSH[GABA]QQ-NH2

T10: BC2T S8C(Abu) (also: Abu described as gamma-amino butyric acid)
T10 construct: positional scanning library member
T10 peptide: Ac-PDRKAAV[GABA]HWQQ-NH2

T11: BC2T Q12H
T11 construct: positional scanning library member
T11 peptide: Ac-PDRKAAVSHWQH-NH2

T12: BC2T W10H
T12 construct: positional scanning library member
T12 peptide: Ac-PDRKAAVSHHQQ-NH2

T13: BC2T W10K
T13 construct: positional scanning library member
T13 peptide: Ac-PDRKAAVSHKQQ-NH2

T14: BC2T S8P
T14 construct: positional scanning library member
T14 peptide: Ac-PDRKAAVPHWQQ-NH2

T15: BC2T Q12S
T15 construct: positional scanning library member
T15 peptide: Ac-PDRKAAVSHWQS-NH2

T16: BC2T Q12W
T16 construct: positional scanning library member
T16 peptide: Ac-PDRKAAVSHWQW-NH2

T17: BC2T Q12C(Abu) (SMILES …)
T17 construct: positional scanning library member
T17 peptide: Ac-PDRKAAVSHWQ[GABA]-NH2

T18: BC2T W10R
T18 construct: positional scanning library member
T18 peptide: Ac-PDRKAAVSHRQQ-NH2

T19: BC2T Q12T
T19 construct: positional scanning library member
T19 peptide: Ac-PDRKAAVSHWQT-NH2

B1: BC2 nanobody (VHH)
VHH: QVQLVESGGGLVQPGGSLTLSCTASGFTLDHYDIGWFRQAPGKEREGVSCINNSDDDTYYADSVKGRFTIFMDNAKDTVYLQMNSLKPEDTAIYYCAEARGCKRGRYEYDFWGQGTQVTVSS
notes: immobilised on beads in this assay; also called BC2-Nb; BC2 nanotrap (immobilised)
B2: BC2-NbR106S (VHH)
VHH: B1 VHH with R106S
notes: headlock mutant of BC2-Nb; immobilised on beads in this assay

How the values were obtained:
Assay in all cases: positional peptide library pulldown on immobilised Nb, LC-MS of supernatant; signal ratio to control GFP-Nb (1 = not captured, near 0 = captured)
[1] = biological target: T1, BC2T W10T
Method in brief: (§1)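 Unbound peptide left in supernatant after 1 h pulldown in PBS/0.01% CHAPS measured by reversed-phase LC-MS (8–30% eluent B gradient, 20 min).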

[2] = biological target: T2, BC2T S8Q
Method in brief: as §1

[3] = biological target: T3, BC2T W10P
Method in brief: as §1

[4] = biological target: T4, BC2T Q12M
Method in brief: as §1

[5] = biological target: T5, BC2T W10Y
Method in brief: as §1

[6] = biological target: T6, BC2T H9T
Method in brief: as §1

[7] = biological target: T7, BC2T W10S
Method in brief: as §1

[8] = biological target: T8, BC2T Q11C(Abu)
Method in brief: as §1

[9] = biological target: T9, BC2T W10C(Abu)
Method in brief: as §1

[10] = biological target: T10, BC2T S8C(Abu)
Method in brief: as §1

[11] = biological target: T20, BC2T H9(I/L1) (N-terminal acetyl; C-terminal amide)
T20 construct: positional scanning library member; I or L not resolved
Method in brief: as §1

[12] = biological target: T11, BC2T Q12H
Method in brief: as §1

[13] = biological target: T12, BC2T W10H
Method in brief: as §1

[14] = biological target: T13, BC2T W10K
Method in brief: as §1

[15] = biological target: T14, BC2T S8P
Method in brief: as §1

[16] = biological target: T15, BC2T Q12S
Method in brief: as §1

[17] = biological target: T16, BC2T Q12W
Method in brief: as §1

[18] = biological target: T17, BC2T Q12C(Abu)
Method in brief: as §1

[19] = biological target: T18, BC2T W10R
Method in brief: as §1

[20] = biological target: T19, BC2T Q12T
Method in brief: as §1

Binder	ratio [1]	ratio [2]	ratio [3]	ratio [4]	ratio [5]	ratio [6]	ratio [7]	ratio [8]	ratio [9]	ratio [10]	ratio [11]	ratio [12]	ratio [13]	ratio [14]	ratio [15]	ratio [16]	ratio [17]	ratio [18]	ratio [19]	ratio [20]
B1	1	0.7	1.1	0.1	1	0.2	1.1	0.1	1	0	0.3	0.1	1	1	0.7	0.1	0.1	0.1	1	0.1
B2	1	0.9	1.1	0.3	1	0.5	1.1	0.3	1	0.1	0.5	0.3	1.1	1.1	1	0.2	0.3	0.2	1.1	0.3

Reference: patent US20170137467A1 (CHROMOTEK, published 2017)
